In US20130302375A1, “MODULATION OF ANTIGEN IMMUNOGENICITY BY ADDITION OF EPITOPES RECOGNIZED BY NKT CELLS” (IMNATE SARL, priority 2010, published 2013):

Assays:
EG7 cells = experiment: In vitro killing of EG7 cells by NKT cells from immunized mice (Annexin V / 7-AAD); format: cell-based; conditions: 18 h at 37° C. with NKT cells from immunized mice, ratios 1/1 to 1/5 (EG7 versus NKT)
Experimental: In vitro killing of EG7 cells was evaluated using NKT cells prepared from the spleen using magnetic bead sorting. The NKT cells were first stimulated for 4 h in vitro with antigen-presenting cells loaded with ova of SEQ ID4. EG7 cells were labeled at membrane level with 1 μM DiOC18 (3,3′-dioctadecycloxacarbocyanine perchlorate from Invitrogen). EG7 cells (1×10^5 per well) were then cultured for 18 h at 37° C. in the presence of NKT cells obtained from each one of the 2 mouse groups, using ratios of 1/1 to 1/5 (EG7 cells versus NKT cells). After 18 h, cells were harvested and stained for Annexin V and 7-AAD following manufacturer's instructions (Apoptosis Detection kit; BD Biosciences) and analyzed on a FACSCantoII flow cytometer (BD Biosciences).

EG7 tumor cells = experiment: EG7 tumor growth in preimmunized mice; format: in vivo; conditions: mice preimmunized subcutaneously in alum on 4 occasions, then engrafted with 10^6 EG7 tumor cells in the flank
Experimental: Immunization of mice with ova of SEQ ID4 was carried out using […] of ova in alum administered subcutaneously on 4 occasions separated by an interval of 10 days. A control group was immunized with ova in natural sequence (SEQ ID3). All mice were then engrafted with 10^6 EG7 tumor cells injected in the flank and the growth of the tumor was followed over time.

[1] = system: class II restricted CD4+ T cells; experiment: Proliferation of CD4+ T cells from immunized mice cultured with dendritic cells from CD1d KO mice; format: cell-based, C57BL/6 mice; conditions: 10^6 cells/well with dendritic cells from syngeneic CD1d KO mice
Experimental: Further, CD4+ T cells were prepared from the spleen of each mouse from the 2 groups, using magnetic bead sorting. Such cells (10^6 cells/well) were cultured with dendritic cells prepared from syngeneic CD1d KO mice. Such cells can only activate class II restricted CD4+ T cells. It is observed that cells obtained from mice immunized with Der p 2 of SEQ ID8 proliferate with a stimulation index 4-fold higher than cells obtained from mice immunized with native Der p 2 (SEQ ID7).

anti-Der p 2 antibodies = experiment: Specific anti-Der p 2 antibodies by direct binding ELISA after immunization; format: in vivo, C57BL/6 mice; conditions: 50 μg protein in alum subcutaneously 4 times at 10 days intervals
Experimental: Two groups of C57BL/6 mice (H-2b) were immunized with either native Der p 2 (SEQ ID7) or native Der p 2 wherein a CD1d binding motif had been added (SEQ ID8), using 50 μg of protein in alum injected subcutaneously 4 times at 10 days intervals. Mice were then bled and the concentration of specific anti-Der p 2 antibodies was tested by direct binding ELISA. It is observed that the concentration of antibodies is 10-fold higher in the group of mice immunized with Der p 2 of SEQ ID8.

Row | Molecule | apoptosis of EG7 cells (EG7 cells) | tumor rejection (EG7 tumor cells) | stimulation index of CD4+ T cell proliferation, versus cells from mice immunized with native Der p 2 (SEQ ID7) [1] | concentration of specific anti-Der p 2 antibodies, versus mice immunized with native Der p 2 (SEQ ID7) (anti-Der p 2 antibodies)
1 | ova of SEQ ID4: ovalbumin with H22 and K187 mutated to F, generating new CD1d binding motifs (protein, listed as Gallus sp.) MGSIGAASMEFCFDVFKELKVFHANENIFYCPIAIMSALAMVYLGAKDSTRTQINKVVRFDKLPGFGDSIEAQCGTSVNVHSSLRDILNQITKPNDVYSFSLASRLYAEERYPILPEYLQCVKELYRGGLEPINFQTAADQARELINSWVESQTNGIIRNVLQPSSVDSQTAMVLVNAIVFKGLWEFTFKDEDTQAMPFRVTEQESKPVQMMYQIGLFRVASMASEKMKILELPFASGTMSMLVLLPDEVSGLEQLESIINFEKLTEWTSSNVMEERKIKVYLPRMKMEEKYNLTSVLMAMGITDVFSSSANLSGISSAESLKISQAVHAAHAEINEAGREVVGSAEAGVDAASVSEEFRADHPFLFCIKHIATNAVLFFGRCVSP | induced into apoptosis | rejected the tumor | – | –
2 | ova of SEQ ID3: ovalbumin (chicken) in natural sequence (protein, listed as Gallus sp.) MGSIGAASMEFCFDVFKELKVHHANENIFYCPIAIMSALAMVYLGAKDSTRTQINKVVRFDKLPGFGDSIEAQCGTSVNVHSSLRDILNQITKPNDVYSFSLASRLYAEERYPILPEYLQCVKELYRGGLEPINFQTAADQARELINSWVESQTNGIIRNVLQPSSVDSQTAMVLVNAIVFKGLWEKTFKDEDTQAMPFRVTEQESKPVQMMYQIGLFRVASMASEKMKILELPFASGTMSMLVLLPDEVSGLEQLESIINFEKLTEWTSSNVMEERKIKVYLPRMKMEEKYNLTSVLMAMGITDVFSSSANLSGISSAESLKISQAVHAAHAEINEAGREVVGSAEAGVDAASVSEEFRADHPFLFCIKHIATNAVLFFGRCVSP | did not induce a significant degree of tumor cell apoptosis | did not | – | –
3 | Der p 2 of SEQ ID8: Der p 2 with the CD1d binding motif FAALAAF added at the carboxyterminal end (protein, listed as Dermatophagoides pteronyssinus) DQVDVKDCANHEIKKVLVPGCHGSEPCIIHRGKPFQLEAVFEANQNSKTAKIEIKASIDGLEVDVPGIDPNACHYMKCPLVKGQQYDIKYTWNVPKIAPKSENVVVTAKVMGDDGVLACAIATHAKIRDFAALAAF | – | – | 4 fold | 10 fold
